Assay results reported in the NTF2 design screens of Basanta et al. (2020).

Assay: protease stability score; higher = more stable; yeast display proteolysis, trypsin and chymotrypsin;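 further: relative to predicted unfolded state with 0 unfolded-like and 1 meaning tenfold more protease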

## REEDHRSRHLSELWIHLWETGDEETMKKLADPNMRINVNGQEFHGREQATRHIHEFLEKFKNVRLHVENIRIQGEKILIISRAEVDGQELEIHIELIIVDGRIEEVNLHVYRR
  protease stability score: 1.46

## REEDKEFEDAVKTILHSFLTGDFDLLIKLLDPNVRIRFENVDLVGWSEYLRRLEEFGVKVHRTKRSDIRYINGVAVVIIDGEMEYGDKKTKVELNFVMQKYDGRWRTQSIHEKEH
  protease stability score: 1.12

## REEDKRAREDVEEWLRWFLTGDEEHLIKYADPNVRVDYGDKDIHGRNEATRIWREFLKHIRIHHVEVSHIKYVGEKVIVDVRLDGEINGRRVITHVEMEIIVVNGVLKSVHINSR
  protease stability score: 1.21

## REEEDNAEKFWEEFSKSLLTGDEDHMEELADPNARMRINGREKVGREEVRKELSHLFTHIRLKSIHLKDFKFFDGRLDIDGSLDGHINGKRREIEVHVHLWKVNGRWTLETLKIN
  protease stability score: 1.17

## REEEEEAKRFLDIITRSILTGDEDSLSELFDPNTQLHYGDKRFVGRERINEVVKQWRIEDVNLHDVEVQGEWAILDTRVDGNFNGKKRNLETRIITEKVNGRWILKRVEIE
  protease stability score: 1.35

## REEEEEIEEALRQWLTLHETGDFKYLEKLFDPNVKQDVGDKELHGRELFSKFEHELAERIKGVRFRYHYEEIHIFDGRVVLRLDGIWEIGDKSMRVTLIVIMNKFDGRWKLESLHIEYR
  protease stability score: 1.24

## REEEEEIRFAEEFWMELEKTGDEHKILRMADPNVRVRIGDKHHHGREHLRRVIEWRLEYAGIDKIEVRLRRVTIINGRVHIDGELIVGDKEHRVEIILVKINGRWILHEFEIR
  protease stability score: 1.5

## REEEEEMEELVRRIIHLLKTGDEREFNRLLDPDARVDDGDWHDHGREAWNKWSEKLRRDAGHENIEFHVRHFEVINGRIIMETKVHIGDKTLDTRLIFVVINGRLTSVRLEIH
  protease stability score: 0.037

## REEEEESQKATEHQLHSLRTGDWRSIERLLDPNTRMEINGVDSVGREYVLELFRRWLEEAGINHIELKSYEVFNGKLEIHSEVHYDGRTIKVINIVIKVNGRWLLHHVHIEDL
  protease stability score: 0.561

## REEEEEVKRNAHITVHILLTGDFHHHSRLFDPHVRSEWNGVELHGMEEDLKWWIELVKHLRFKHFEIHDIRVYDGVADNDINEVIKVNGKDFTFKSSIILIIINGQIRELKFVIN
  protease stability score: 0.073

## REEEEHAEKVVKLMLHWLHTGDEEKFINNADPNVKLQIDGQRIHGWDDWERRMNEKLQRVDYIDNVVIRHIDNQGDKAIFHGELRGIQGDKHFTFHVELRIRVVNGVIHEMEIIIR
  protease stability score: 2.05

## REEEEHAEYVIRVWERLLETGDEHEVARLLDPEVRLNIDGVDIHGREDIIRWLKHIRIEIEDSDHKRIEVQGEKIHLDGHRKEVIHVGDKKIRREHRIKLELVWIDGKITSLNVVLH
  protease stability score: 1.24

## REEEEHAHRIFEILVRLWLTGDEDTYLNLADPHDLIEIDQGDKRDENHGRESAFHLWEWFLREMRIKRMILRDERVQGEKLEFDVEVRGNINGVDLRFRVHIIIVVINGRFKSSKVILN
  protease stability score: 0.759

## REEEEHARRLVEMYFHALLTGDEDLLKSLLDPNVKLQIGDKVHVGREELIRSLRELWDKLGIDHITLEEYRIEIQGNKIRLKLYMHLHVNGRLLQVTTDILVDKVDGRWVIQEIRVHEA
  protease stability score: 1.91

## REEEEHLERVMSLILLIMSTGDFKTLSELFDPHARLRVGDKHLIGWSFVADWIVKFKNMQLRHHRRHVVNGVVEVEDEFRVGDKRFTLRLLFLVVDGVVKEVHIEIEDR
  protease stability score: 0.833

## REEEEHLKKFIEDHIRDLRTGDEQKVADQADPHVRTRFNGVDYHGREDHMKLMKHIRFEEMRIEDVKVQGDKAHIDSIITIEVDGQRETIKVHIIIVKIDGRWLLKQSHFN
  protease stability score: 0.396

## REEEEISKNIAELFEHTLRTGDEKLFLKLADPHVKNEQGEFDSVGREEWHRQFREILNKWGVDRIHSQERRFTDYDGRLEMHVEMRFNGKRVEVRMRVEKYDGRWILTELHIRIE
  protease stability score: 0.655

## REEEELLKKLADHWWENVRTGDERRMRELFDPNTQFVIEVGDKKFTRHGRDELVHSLEHARIHDFHIKDQRPQGDFIEVEGEIDGEIDGRRFRTDVRVWIVIVNGRLKQIHIHVG
  protease stability score: 1.15

## REEEELMKEIARRVIESHYTGDEDWWLELADPNVQVHVGDKRKVGREHALHLLHIFHKHLGVDHLHLRHVHVQGDWIEIEMDLNINGKIREMRVFVTVIDGRLDSINIDIK
  protease stability score: 1.27

## REEEENMRHFYKLMEHSLHTGDEDTLRRLFDPDARILIDGREHHGMEFILQLLHHIRLRVHDTKIEDIEHQGEWLHMHTRIDIYYNVDGQEVRVDTNVRLHAHKVDGRWFVRSYERG
  protease stability score: 0.748

## REEEEQLKHFIEHRLHNFLTGNEERLHHLADPNMRIDINGKELHGREAYIYEFNRLGWEIKHIDIEHLEVQGDKVDVDLRFKGHIDGKTRHIKSKLIVLKVDGKWFDKDYFII
  protease stability score: 1.13

## REEEERLKDLERVMRELWRTGDEREMSRNADPHVKLSVGDKEFHGRELFTKWASRVDHYDHLIIRDIETQGDKVRMYVETEMDIDGKDVKTESFILAVKIDGRWILRSLELR
  protease stability score: 0.387

## REEEERVEHLARLVFRALMTGDEDEYKHLADPDDRLILVINGRRQEFHGMEVVLEWLRHLLKEIRIHHSHIHDVKVIGDKVDFDTSVDVEYNGQRHWRKMRVIIIIVNGRYRSVEIILE
  protease stability score: 2.26

## REEEETLDRAIREMLRNMRTGDEHRMRELMDPNVRAHINGREIHGREEVVRHLVEWLKRVDHIEFKLEHQVVYGEKIDLDTRVTIRVNGVELRHKTHQRVHKIDGKWVLDELEIS
  protease stability score: 2.05

## REEEEVVREIARRVIKSWITGNEHDMQEFADPHVRIFIGDKEIIGMEILNEILHRIKNITIRINMRHVDVQGDKVDLEGELEIRVNGQTERHDSRHHFDVVNGRIKIIEIQWD
  protease stability score: 0.918

## REEEEYRHHVLRRWLEIWETGDEEAEAKNVDPNARMHVNGVDLHGRETIIHFLEEYMRKVKGVQERNDKVHLQGEFTHLTGRVLINGRWKEVTIQLLIINGRHHYLRIIIE
  protease stability score: 0.898

## REEEHAMKSMIDLWIESMNTGDERSISEMADPNAKNRVGDKTFVGMELLSHILFKLVKELGVRIEDHKIHDIKVQGDKIVSHVRLHLKYGDKEEDHETIIYTRKINGRWLIERVEVI
  protease stability score: 1.53

## REEEHHLEKLARHIVHAILTGDERYLEKLMDPNTRVEIIDGEYRIERHGMHNIVHLLLEIRIHHFEIKRITTYNGQVDIDGEIDGEYGDKRDNRHVEIRFHFVNGRTKSFKVTWR
  protease stability score: 1.31

## REEEKDEERMVHELMEWHRTGDEKTLNELLDPNARFIINGKHIHGREVFNEEVKRLGFRIEEYHLRRVRIYDGRIEFETEIDGEVNGRRLHIETRFHAIKINGQWRLKHIEFH
  protease stability score: 2.5

## REEEKDIRDVLKLWKDISRTGDEHLIRRLVDPNARLNFNGREIHGREDVAEFLLRRWRQIDHLEIIDRDVRYQGDKVEFHGHVREKIGDKEETYELEFILVKIDGRWLVHSLHVH
  protease stability score: 2.43

## REEEKFAIHLVRRVVEYLLTGDEDSLKRLADPNTRIHINGVDRHGMEESYKWWKSEIDHLRHHIVITRMRFIDGVIEVDIRLHSDFDGVRFSWNVHLILLVVDGRIKTDKMIVE
  protease stability score: 1.26

## REEEKIYHHLTEMWYEMLHTGNEEERERLFDPNTRVNIGDYHFHGREKLLEAYRRWRHMLGIKHYEVDRVEVIGDKVFSQGHSKAENHRLDVRIVIVVWNGRLKETSVDIH
  protease stability score: 1.04

## REEEKKLEDIVKKLLEAWETGDEDFLIEMADPDTRVEFEAENHHEHRVGWENMIHWTHEVHRHLGVKHLMIDSSTIIGEKVHIDGTMNINGREVKIRIIIEIVDGRVKKIKIIVH
  protease stability score: 1.71

## REEEKLWEHIFHLFIEDVLTGDEDRLREMLDPNVRLKAEGHDDHGRESMVKFNEELHKEIRFERIHLRRIHIIDGVSFMDVQIDGTVNGKHRSLESEIRIYIVDGRIRMVELRIR
  protease stability score: 1.25

## REEEKMFTMILEIIKHSLVTGDEDLTRNLVDPNMRLEINGQEVHGREEILRVLLELRVKEMHIDDVKFQGDKAEIDGTLDIEWNGQEDHLKVEIIFRKINGRWHIESIRLE
  protease stability score: 1.48

## REEEKMMRHIFRLDVILELTGDEEKWKHYADPNVRVIFIFENVHIEHHGRDAWVRLLHHMRIDRIIIHRLRVFENHNQADTFVKGEINGRELDMETHFYVLVINGRRKEVELEVR
  protease stability score: 1.46

## REEEKNLHTQMRLFAHALWTGDEDEIHRNMDPHVRSDIDGRELVGREWMIRLIEELRIRHVHIRHFHLQGDKLHLDTISHVIVNGVEVDMHTRVDVEKVNGRWLITSIRFD
  protease stability score: 1.18

## REEEQHAERFTKLFIEAFETGDWKELSRLLDPHARMEWNGRVHHGMEQIVEVLLKQFHDLGFRIEHVRIHDIRVQGEKIKVDVDIDGIVDGRREHWKVTLIILKVNGRWLTKEIEYR
  protease stability score: 1.31

## REEEREAKEWLERLIRDIITGDEDKMTNLIDPNVRILINGKHIHGWELYFKIWIDHVERFPNMRVDYHVKSITFFNGRIIMYYEERIHINGKEIRVDVHIQALKVNGRWILESVHNE
  protease stability score: 1.54

## REEERLTRHFAHRLFHSLMTGDEDELTELADPNARSIVDGRTVHGRETMSRIIHHKVRELGVDHNTIEHIEFQGNYVHVHMRIEVGDKTYTSIIHIEKVDGRWLVRSVNLL
  protease stability score: 0.491

## REEESEWKKFFEDLLRSLVTGDESSLSKMIDPHARLDVDGREFHGREHMAHWIVRTLNEHGITIKIEIKDFRLVGDKVHVDGHEDIEVGDKRHERRLHIILLKFNGRWVIKELKVE
  protease stability score: 2.67

## REENEMLKRAIKHILRVLETGDFEDLSKMFDPHARLFFNGVLFMGRENVEHHWERERERYKNLRLHFRHVNYHVQGDKVFVEYHVDVTVGDKKWEVHFHFIVIKINGQWYNEDLEIEIR
  protease stability score: 1.66

## REIEEDVEKALRLWEKTMFTGDEDRFMELADPHTRVTFNGREVIGMEIWKTLVEELGIDVIKDTRIHDVKVQGNKVHVDSHRHVHFNGKTVEIRTRLIATKFDGRWHIESIRFQ
  protease stability score: 0.803

## REIEKSLEESLKMWLENLVTGDERQLSELVDPDAKLEVGDKHHVGMETISHMIRHMRIESIEIKSIRIFDGRAEIHAYVLGNINGQRKDLNEKLHWEKINGRWEVRKILLE
  protease stability score: 2.13

## REKDDEMDRIVKIFYHVLRTGNEELLDTLIDPDTRIEVDINGVNYISHGREEWKRVIEELLRHMRINSIIIHDIRYQGNKATIDNHADLEFDGVRFEMRSELRIIVVNGRYRSFSRIIR
  protease stability score: 1.13

## REKDDLLHEFTERYMTAIETGDEETLEKLMDPDVKLHVGEYHDHGREDVSEWLRTHLEQWRIERIEIQHVDLQGDKLRVDLIVHARVGDKRIILHTILISRKINGRWHIKFFSMR
  protease stability score: 1.3

## RELDEMAERAVEWYFRVLRTGDEHTLSRLLDPNVRVVFDGRTYIGREWYREHEEKLGVDHMRLDVKSVRNINGRIEVDVRVNREVNGQEIRIEMRMTSEKVDGRWEVKTVEEK
  protease stability score: 1.3

## RELEESSKFFLKLIIEAFLTGDERTNSELADPNVRIHIGEFHYHGREEFSKLMEELVKRVKNATVINDIDHIEVQGEKIKMDGRLILIYNGRIFETRTSLIVVKIDGRWLIESVHVK
  protease stability score: 1.48

## RELERDSTELIKMWLRHLETGDEDVISELIDPNVKVDINGQDHHGREDATEWAMRVKNMTIIVRHLEFQGEKAFVTTEVRVNGKTVHVIVRSLKVDGRWRLESLEVHSE
  protease stability score: 1.59

## REQEEFSENAIKLWEHLTKTGDEEKMTKLMDPHARLDVNGQQLVGRELIEKIIREILKRIDHLDHIEFEHIDNQGEKVIIHSRVIFIFNGRKIDTEVHVIMIKINGQWRIESMTEK
  protease stability score: 1.18
